Reference: the supplement of paper PMC10724198
± gives the standard deviation of the averaged measurements.

Assays:
[1] = test system: Saccharomyces cerevisiae; assay: protein stability index of tFT-peptide fusion in deletion strain of DAS1 (PSI (0-1 scale)); higher = more stable (slower turnover)
Protocol: (§1)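 MPS profiling in S. cerevisiae of two library types built from selected 12-aa C-degron peptides (IN1, IN2, LN1, LN3, VN2, R1-R5, W1-W3, Atg1 and Rpa12 C-termini): saturation mutagenesis libraries and C-terminal +1 capping libraries (13 aa). Each peptide is fused to the C-terminus of a sfGFP-mCherry timer, after a GGGS linker. Cells are FACS-sorted into 8 mCherry/sfGFP bins and sequenced. PSI runs from 0 (unstable) to 1 (stable), measured once in wild type and in the das1Δ or doa10Δ background.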

[2] = test system: Saccharomyces cerevisiae; assay: protein stability index of tFT-peptide fusion in wild type (PSI (0-1 scale)); higher = more stable (slower turnover); settings: genetic background: wild type
Protocol: as §1

[3] = test system: Saccharomyces cerevisiae; assay: protein stability index of tFT-peptide fusion (C-terminal peptide) (PSI (0-1 scale)); higher = more stable (slower turnover); settings: temperature: 30 C
Protocol: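 MPS profiling in S. cerevisiae of the yeast C-terminome library: the last 12 aa of each annotated ORF are fused to the C-terminus of a sfGFP-mCherry timer, after a GGGS linker. Cells are FACS-sorted into 8 mCherry/sfGFP bins and deep-sequenced. PSI runs from 0 (unstable) to 1 (stable); wild type and das1Δ backgrounds, two technical replicates each.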

[4] = genetic background: das1 deletion
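For protein stability index of tFT-peptide fusion in deletion strain of DAS1 in this document: PSI is a weighted mean of each variant's read distribution over the sorted stability bins, computed only for variants having over 10 reads in total.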
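For protein stability index of tFT-peptide fusion in wild type in this document: PSI derived as read-weighted mean over the 8 sorting bins, only variants exceeding 10 total reads kept, mCherry placed adjacent to the peptide and sfGFP distal.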

Sequence	protein stability index [1]	protein stability index [2]	protein stability index [3, 4]	protein stability index ([3]; genetic background: wild type)
LKILRGKMNHQN	0.674	0.297		
ARWRVGLWRSAS	0.693	0.102		
CTSCGYKFRTNNN	0.677	0.674		
ARWRVGLWRGAST	0.682	0.659		
FSMRWTFRYQVN	0.539	0.0962		
VFLIISQHSLHS [YBL113W-A C-terminal 12 aa]			0.6652 ± 0.0044	0.646 ± 0.029
KDNSVGKILNST [BOP3 C-terminal 12 aa]			0.667 ± 0.018	0.71 ± 0.026
SLYPRFSGRCKP [DED81 C-terminal 12 aa]			0.703 ± 0.011	0.6745 ± 0.0059
VMAWTFGYALIG [EMC6 C-terminal 12 aa]			0.654 ± 0.015	0.452 ± 0.014
GATEKRKCAKPF [CSL4 C-terminal 12 aa]			0.674 ± 0.033	0.687 ± 0.029
KEDPDLRQSYQG [MGS1 C-terminal 12 aa]			0.693 ± 0.016	0.649 ± 0.0099
KLEKKQSERSTH [STE7 C-terminal 12 aa]			0.7002 ± 0.0013	0.769 ± 0.067
RLKTGKKKGGPK [RRP14 C-terminal 12 aa]			0.6909 ± 0.0054	0.766 ± 0.13
NTEPPEAPAATN [AFG3 C-terminal 12 aa]			0.73 ± 0.032	0.668 ± 0.028
VPEPGDQPLVQA [YPR078C C-terminal 12 aa]			0.725 ± 0.022	0.678 ± 0.023
PVFTASQLRFAW [ESA1 C-terminal 12 aa]			0.738 ± 0.018	0.7148 ± 0.0046
GGFLSFGGGYDE [AIM25 C-terminal 12 aa]			0.712 ± 0.034	0.726 ± 0.013
GSYATRAYGQKK [FDH1 C-terminal 12 aa]			0.694 ± 0.011	0.688 ± 0.018
TAEEQEQSACQC [YPT6 C-terminal 12 aa]			0.6863 ± 0.0043	0.687 ± 0.021
EIRNMVINSTKD [BFA1 C-terminal 12 aa]			0.713 ± 0.008	0.688 ± 0.021

Sequence	protein stability index [1]	protein stability index [2]	protein stability index [3, 4]	protein stability index ([3]; genetic background: wild type)
PAAWRALTQYIS [PTH1 C-terminal 12 aa]			0.7186 ± 0.0024	0.348 ± 0.029
GINAGEIEIPEN [RPL12A C-terminal 12 aa]			0.692 ± 0.0082	0.698 ± 0.012
KGLVIVKDAIIL [PFF1 C-terminal 12 aa]			0.678 ± 0.027	0.697 ± 0.01
TATSSSIILSDK [SSN2 C-terminal 12 aa]			0.713 ± 0.032	0.665 ± 0.045
QEEEEDVATDSE [YRO2 C-terminal 12 aa]			0.677 ± 0.014	0.711 ± 0.034
ESSARRDRKEHI [TMA23 C-terminal 12 aa]			0.679 ± 0.035	0.701 ± 0.041
PLQWLSTWDIAP [PMT6 C-terminal 12 aa]			0.787 ± 0.02	0.757 ± 0.021
DFQNCFPRQRIL [DFP2 C-terminal 12 aa]			0.7035 ± 0.0037	0.2848 ± 0.0028
QGPRPGNWDQED [CCT8 C-terminal 12 aa]			0.7177 ± 0.0017	0.678 ± 0.016
RDNPILLEDEDP [ULP2 C-terminal 12 aa]			0.708 ± 0.022	0.6747 ± 0.00092
CKATSLLLIPEG [YBL108W C-terminal 12 aa]			0.675 ± 0.018	0.659 ± 0.021
PVGAGNEPINPE [URN1 C-terminal 12 aa]			0.684 ± 0.013	0.704 ± 0.074
LITSHCCYWNKR [YBL039C-A C-terminal 12 aa]			0.6928 ± 0.0067	0.52 ± 0.033
ANMAAYDKAIHC [LPD1 C-terminal 12 aa]			0.681 ± 0.018	0.708 ± 0.033
KQKAFIQPKLVF [UTP4 C-terminal 12 aa]			0.691 ± 0.018	0.692 ± 0.017
DHKVGAQVSYKY [MAD2 C-terminal 12 aa]			0.71 ± 0.0075	0.675 ± 0.017
LSLTLVSIIKTA [COG2 C-terminal 12 aa]			0.618 ± 0.025	0.193 ± 0.0064
VPVILREYKGSA [GCD2 C-terminal 12 aa]			0.725 ± 0.017	0.665 ± 0.0075
LLHYQSWHFSIY [YJL007C C-terminal 12 aa]			0.707 ± 0.035	0.407 ± 0.026
